Series [1] has as its target cMet-Fc (HGFR ectodomain fused to human IgG1 Fc) (human) (UniProt P08581). Kind of series: competition filter binding. The following applies: vs 5'-32P-trCLN3; ~50 nM cMet; four 5'-terminal 5-(1-dodecynyl)-dU (C12 lipid; printed as LLLL, written as UUUU); 1x PBS pH 7.4, 2 mM MgCl2, 0.1 mg/mL E. coli tRNA, 0.25 mg/mL BSA, 37 C, 30 min; ~25 fmol 32P-trCLN3, ~50 nM cMet, 25 uL, nitrocellulose filter.

The target in series [2] is cMet-Fc (HGFR ectodomain fused to human IgG1 Fc) (human, UniProt P08581 25-932). Kind of series: competition filter binding; vs 5'-32P-trCLN3; ~50 nM cMet; 1x PBS pH 7.4, 2 mM MgCl2, 0.1 mg/mL E. coli tRNA, 0.25 mg/mL BSA, 37 C, 30 min; ~25 fmol 32P-trCLN3, ~50 nM cMet, 25 uL, nitrocellulose filter. Conditions: protein: commercial; two predicted intramolecular G-quadruplexes.
cMet-Fc (HGFR ectodomain fused to human IgG1 Fc), sequence (P08581 25-932): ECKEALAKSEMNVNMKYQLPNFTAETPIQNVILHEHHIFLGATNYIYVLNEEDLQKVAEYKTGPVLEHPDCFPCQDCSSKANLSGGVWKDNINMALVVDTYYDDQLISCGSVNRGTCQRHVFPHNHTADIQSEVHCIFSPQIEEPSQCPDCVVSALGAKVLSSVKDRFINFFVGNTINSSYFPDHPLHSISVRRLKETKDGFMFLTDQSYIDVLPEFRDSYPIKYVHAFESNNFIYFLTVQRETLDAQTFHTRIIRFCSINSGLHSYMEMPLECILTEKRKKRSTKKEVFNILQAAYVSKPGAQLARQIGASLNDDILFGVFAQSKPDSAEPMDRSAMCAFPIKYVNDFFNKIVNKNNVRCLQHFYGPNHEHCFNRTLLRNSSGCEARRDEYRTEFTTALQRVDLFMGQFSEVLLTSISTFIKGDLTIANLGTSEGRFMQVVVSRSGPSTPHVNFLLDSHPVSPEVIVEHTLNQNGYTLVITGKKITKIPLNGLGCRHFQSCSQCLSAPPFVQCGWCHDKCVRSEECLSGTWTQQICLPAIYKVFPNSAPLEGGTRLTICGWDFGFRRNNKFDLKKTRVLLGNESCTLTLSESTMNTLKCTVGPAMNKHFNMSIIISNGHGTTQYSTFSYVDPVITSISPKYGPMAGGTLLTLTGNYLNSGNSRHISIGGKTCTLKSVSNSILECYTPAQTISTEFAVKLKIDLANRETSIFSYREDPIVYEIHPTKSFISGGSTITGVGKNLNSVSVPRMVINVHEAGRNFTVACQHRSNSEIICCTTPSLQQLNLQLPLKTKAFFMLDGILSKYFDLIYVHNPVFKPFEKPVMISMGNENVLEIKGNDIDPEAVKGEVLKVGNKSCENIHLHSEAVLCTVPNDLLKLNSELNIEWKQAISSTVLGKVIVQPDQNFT

cMet-Fc (HGFR ectodomain fused to human IgG1 Fc) (human), sequence (P08581 25-932): as above

What is called IC50 is the point on the concentration scale where inhibition reaches its midpoint. In series [1], “UUUUTGGATGGTAGCTCGGTCGGGGTGGGTGGGTTGGCAAGTCT [trCLN3-L4]” registered an IC50 of 43 nM.

B1: trCLN3 (structured_DNA)
DNA: TGGATGGTAGCTCGGTCGGGGTGGGTGGGTTGGCAAGTCT
As for B1, the IC50 in series [2] was 56 nM.

The record behind these values is article PMC5803212, “Supramolecular aptamer nano-constructs for receptor-mediated targeting and light-triggered release of chemotherapeutics into cancer cells”.
